Source: PMC6361588, “Exploration of CTCF post-translation modifications uncovers Serine-224 phosphorylation by PLK1 at pericentric regions during the G2/M transition”

Experiments:
FLAG-CTCF(S224E)-6xHis = target: T1, FLAG-CTCF(S224E)-6xHis (UniProt Q61164 1-736, S224E); assay: EMSA; 0.5, 1 or 2 pmol protein; EMSA as in Sun et al., 2013; buffer, salt, pH and temperature not given in the material; settings: protein: recombinant; tags: N-terminal FLAG, C-terminal 6xHis; blunt
T1 sequence: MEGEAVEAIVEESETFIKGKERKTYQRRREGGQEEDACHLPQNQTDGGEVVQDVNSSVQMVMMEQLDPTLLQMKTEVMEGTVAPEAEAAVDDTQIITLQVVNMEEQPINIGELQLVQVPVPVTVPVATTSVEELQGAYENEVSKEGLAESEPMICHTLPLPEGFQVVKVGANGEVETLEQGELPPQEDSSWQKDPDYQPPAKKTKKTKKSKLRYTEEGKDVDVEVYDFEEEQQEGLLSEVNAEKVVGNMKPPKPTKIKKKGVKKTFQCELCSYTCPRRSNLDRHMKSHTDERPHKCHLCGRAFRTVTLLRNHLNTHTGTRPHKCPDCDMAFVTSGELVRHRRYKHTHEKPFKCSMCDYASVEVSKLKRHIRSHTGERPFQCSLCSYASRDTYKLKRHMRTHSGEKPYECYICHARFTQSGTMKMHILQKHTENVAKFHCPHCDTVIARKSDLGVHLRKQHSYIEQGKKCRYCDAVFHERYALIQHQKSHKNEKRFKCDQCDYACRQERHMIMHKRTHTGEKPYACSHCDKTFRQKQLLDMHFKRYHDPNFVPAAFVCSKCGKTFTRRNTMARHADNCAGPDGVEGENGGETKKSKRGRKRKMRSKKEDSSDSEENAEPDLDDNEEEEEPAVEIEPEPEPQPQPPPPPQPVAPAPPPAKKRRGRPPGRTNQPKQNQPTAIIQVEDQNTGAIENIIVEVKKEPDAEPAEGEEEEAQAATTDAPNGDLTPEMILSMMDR

FLAG-CTCF(S224A)-6xHis = target: T2, FLAG-CTCF(S224A)-6xHis (UniProt Q61164 1-736, S224A); assay: as above; settings: protein: recombinant; tags: N-terminal FLAG, C-terminal 6xHis; blunt
T2 sequence: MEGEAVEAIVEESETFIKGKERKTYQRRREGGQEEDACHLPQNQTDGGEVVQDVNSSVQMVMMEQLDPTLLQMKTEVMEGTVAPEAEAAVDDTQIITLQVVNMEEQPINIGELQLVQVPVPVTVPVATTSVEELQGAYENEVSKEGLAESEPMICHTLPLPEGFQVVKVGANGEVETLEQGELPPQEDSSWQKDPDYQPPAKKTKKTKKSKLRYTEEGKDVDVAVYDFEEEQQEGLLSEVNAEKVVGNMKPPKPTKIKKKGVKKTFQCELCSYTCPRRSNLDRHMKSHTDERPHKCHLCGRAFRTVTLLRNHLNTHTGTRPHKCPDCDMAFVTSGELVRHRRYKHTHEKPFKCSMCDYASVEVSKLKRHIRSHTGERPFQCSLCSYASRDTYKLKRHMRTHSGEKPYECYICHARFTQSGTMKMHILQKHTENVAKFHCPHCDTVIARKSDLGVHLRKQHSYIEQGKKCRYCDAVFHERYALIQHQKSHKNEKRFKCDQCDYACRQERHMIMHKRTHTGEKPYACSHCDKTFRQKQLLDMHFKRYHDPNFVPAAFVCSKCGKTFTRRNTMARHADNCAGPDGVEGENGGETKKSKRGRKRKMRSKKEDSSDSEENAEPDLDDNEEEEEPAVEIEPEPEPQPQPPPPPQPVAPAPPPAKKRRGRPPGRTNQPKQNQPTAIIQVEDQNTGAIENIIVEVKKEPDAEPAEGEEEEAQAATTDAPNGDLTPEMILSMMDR

B1: RS14C (dsDNA)
DNA 1: CTATGCATTAGGTTTGGGTGTTATACCCGTGTAGGCCAGCAGAGGGTGTCGGATCCCAAGGAAACCAAGTTACAGACGCC
DNA 2: GGCGTCTGTAACTTGGTTTCCTTGGGATCCGACACCCTCTGCTGGCCTACACGGGTATAACACCCAAACCTAATGCATAG
binding result (FLAG-CTCF(S224E)-6xHis): binds | binding result (FLAG-CTCF(S224A)-6xHis): binds

B2: RS14C mutant (dsDNA)
DNA 1: CTATGCATTAGGTTTGGGTGTTATACCCGTGTAGGCTAGCACAGTGTGTCGGATCCCAAGGAAACCAAGTTACAGACGCC
DNA 2: GGCGTCTGTAACTTGGTTTCCTTGGGATCCGACACACTGTGCTAGCCTACACGGGTATAACACCCAAACCTAATGCATAG
binding result (FLAG-CTCF(S224E)-6xHis): no binding | binding result (FLAG-CTCF(S224A)-6xHis): no binding
